The values that follow come from patent US20110262525A1, “METHODS OF TREATMENT” (SCHERING CORPORATION, priority 2006, published 2011).

For assay [1], the system named is NB-1691 xenograft (Neuroblastoma). The assay is described as follows: PPTP in vivo xenograft NB-1691. The conditions noted are these: NB-1691 (Neuroblastoma) xenograft, 0.5 mg per mouse ip twice weekly for four weeks. The protocol:
(§1) The PPTP includes a molecularly characterized in vitro panel of cell lines (n=27) and in vivo panel of xenografts (n=61) representing most of the common types of childhood solid tumors and childhood ALL (acute lymphoblastic leukemia). LCF/HCA anti-IGF1R antibody was tested against the PPTP in vitro panel at concentrations ranging from 0.01 nM to 100 nM; and was tested against the PPTP in vivo panel at a dose of 0.5 mg per mouse administered twice weekly for four weeks via intraperitoneal injection. Three measures of antitumor activity were used: 1) response criteria modeled after the clinical setting; 2) treated-to-control (T/C) tumor volume at day 21; and 3) a time to event (4-fold increase in tumor volume) measure based on the median EFS of treated and control lines (intermediate activity required EFS (event-free survival) T/C>2, and high activity additionally required a net reduction in median tumor volume at the end of the experiment).
(§2) Stage 1 testing involved testing an agent across the entire PPTP panel of childhood cancer xenograft lines at its maximum tolerated dose (MTD) or at a dose selected based on PK/PD (pharmacokinetic/pharmacodynamic) studies using adult preclinical models.
(§3) In vivo solid tumor testing: For each xenograft line, 10 mice bearing subcutaneous (SC) tumors initiated treatment when the tumors were between 0.2-0.5 cm^3 in volume. Two perpendicular tumor diameters were measured at once weekly intervals with digital vernier calipers. Assuming tumors to be spherical, volumes were calculated from the formula (π/6)×d3, where d represented the mean diameter.
(§4) Drug: LCF/HCA was dissolved in 20mM sodium acetate pH 5 buffer containing 150 mM sodium chloride, and administered intraperitoneally twice weekly for 4 consecutive weeks at a dose of 0.5 mg per animal. […]
(§5) Median Group Response: Each individual mouse in each treatment group was assigned a response score (see Tables above) and a median score for the treatment group was calculated and then each treatment group was assigned an overall response according to the table below. […]

Assay [2] has as its system BT-50 xenograft (Medulloblastoma). In words: PPTP in vivo xenograft BT-50. The conditions noted are these: BT-50 (Medulloblastoma) xenograft, 0.5 mg per mouse ip twice weekly for four weeks. The protocol: as §1, §2, §3, §4, §5
Assay [3] has as its system EW8 xenograft (Ewings). In words: PPTP in vivo xenograft EW8. The procedure: as §1, §2, §3, §4, §5
Assay [4] concerns KT-13 xenograft (Wilms). In words: PPTP in vivo xenograft KT-13. As to conditions: KT-13 (Wilms) xenograft, 0.5 mg per mouse ip twice weekly for four weeks. The protocol:
as §1, §2, §3, §4, §5

For assay [5], the system named is NB-EBc1 xenograft (Neuroblastoma). The assay is described as follows: PPTP in vivo xenograft NB-EBc1. Set-up: key to EFS activity notation (high, intermediate, indeterminate): high (!); intermediate (#); indeterminate (^). The protocol: as §1, §2, §3
Drug: LCF/HCA was dissolved in 20mM sodium acetate pH 5 buffer containing 150 mM sodium chloride, and administered intraperitoneally twice weekly for 4 consecutive weeks at a dose of 0.5 mg per animal. The antibody was provided to each testing site in coded vials for blinded testing according the PPTP's standard operating procedures.
Median Group Response: Each individual mouse in each treatment group was assigned a response score (see Tables above) and a median score for the treatment group was calculated and then each treatment group was assigned an overall response according to the table below.
Statistical Methods: Event-free survival (EFS) distributions of each treatment group were compared to the EFS distribution of the respective control group using the exact log rank test. P-values were 2-sided & were not adjusted for multiple comparisons given the exploratory nature of this study. P-values<0.05 were considered to be significant.

Where [6] appears, read: 0.5 mg per mouse ip twice weekly for four weeks.
Where [7] appears, read: day 21, 0.5 mg per mouse ip twice weekly for four weeks.

Marks after values point to notes of the source that are not given here. A value given as a limit tells only on which side of the number the result lay.

B1: LCF/HCA: fully human anti-IGF1R antibody comprising the mature 19D12/15H12 light chain F (LCF) and mature heavy chain A (HCA) (antibody, V domains shown)
VH: EVQLVQSGGGLVHPGGSLRLSCAASGFTFSSFAMHWVRQAPGKGLEWISVIDTRGATYYADSVKGRFTISRDNAKNSLYLQMNSLRAEDMAVYYCARLGNFYYGMDVWGQGTTVTVSS
VL: EIVLTQVPDFQSVTPKEKVTITCRASQSIGSSLHWYQQKPDQSPKLLIKYASQSLSGVPSRFSGSGSGTDFTLTINSLEAEDAAAYYCHQSSRLPHTFGGGTKVEIKRT
On to B1, for which the “EFS T/C” value is on record as 0.9 in assay [1], 1.5 in assay [3] (setting [6]), 1.1 in assay [4] and above 2.0 in assay [5] (setting [6]). The “Median Final RTV” value in assay [1] is above 4; in assay [2] it was 1.4; in assay [3] (setting [6]), above 4; in assay [4] it was above 4; in assay [5] (setting [6]), 1.4#. The “Tumor Volume T/C” value in assay [1] (day 21) is recorded as 1.34; in assay [2] (day 21) it was 0.94; in assay [3] (setting [7]), 0.86; in assay [4] (day 21), 0.84; in assay [5] (setting [7]) it was 0.8. For the same molecule, the “Overall Group Response” value in assay [2] and in assay [5] (setting [6]) was “PD2 (1 < MS ≦ 3)” each time. In addition, the “EFS activity notation (high, intermediate, indeterminate)” value in assay [5] (setting [6]) was “#”.
